Results: patent US20060246076A1

Molecular target: murine inducible nitric oxide synthase (murine) (UniProt P29477)

PGE2 formation reduction: > 50%
Substance: COX2-myc fragment 484-604 (from UniProt P35354)
